Reference: article PMC11813800, “A concept of natural genome reconstruction.Part 2. Effect of extracellular double-stranded DNA fragments on hematopoietic stem cells”

Columns and labels:
SLAMF5 (CD84) = target: T1, SLAMF5 (CD84) (UniProt Q9UIB8 22-225); assay: EMSA; 10 mM PBS buffer, 37 °C, various ratios and times; native PAGE (6 % or 10 % tris-borate); pH not given; details: label: P32; blunt
T1 sequence: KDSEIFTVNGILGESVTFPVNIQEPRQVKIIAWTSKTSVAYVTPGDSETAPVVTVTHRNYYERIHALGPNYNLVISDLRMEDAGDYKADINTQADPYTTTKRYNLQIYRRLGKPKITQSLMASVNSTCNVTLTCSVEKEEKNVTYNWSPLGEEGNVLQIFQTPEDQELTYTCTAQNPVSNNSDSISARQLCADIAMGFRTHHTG

CD34 = CD34 (UniProt P28906 32-290); assay: as above; details: label: P32; blunt
CD34, sequence (P28906 32-290): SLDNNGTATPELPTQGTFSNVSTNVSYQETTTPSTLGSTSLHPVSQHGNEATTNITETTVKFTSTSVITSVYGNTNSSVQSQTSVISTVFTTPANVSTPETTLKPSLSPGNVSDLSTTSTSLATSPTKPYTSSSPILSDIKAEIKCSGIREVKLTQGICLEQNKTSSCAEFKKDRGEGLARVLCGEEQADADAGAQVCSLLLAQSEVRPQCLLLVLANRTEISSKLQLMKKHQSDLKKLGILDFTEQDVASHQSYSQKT

B1: (TTAGGG)9 telomeric repeat, 54 bp (dsDNA)
DNA 1: TTAGGGTTAGGGTTAGGGTTAGGGTTAGGGTTAGGGTTAGGGTTAGGGTTAGGG
DNA 2: CCCTAACCCTAACCCTAACCCTAACCCTAACCCTAACCCTAACCCTAACCCTAA
binding result (SLAMF5 (CD84)): binds
binding result (CD34): binds
